Values of other authors, collected in publication PMC8069034.

Biological target: IL13 (Homo sapiens) (UniProt P35225)
Experiment: SPR

Sequence of IL13 (Homo sapiens) (P35225 25-146): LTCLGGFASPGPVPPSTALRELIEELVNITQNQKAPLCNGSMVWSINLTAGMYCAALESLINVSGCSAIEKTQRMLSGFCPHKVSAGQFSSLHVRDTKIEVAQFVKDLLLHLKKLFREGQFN

tralokinumab
Kd: 0.058 nM
